Values of other authors as cited in patent US5747454A, “Chromogranin peptides” (Albert Einstein College of Medicine of Yeshiva University, priority 1995, dated 1998).

Tested on: primary cultures of parathyroid cells

B1: Chromogranin A: large, acidic protein found in the secretory granules of endocrine and neuroendocrine tissues including the parathyroid (protein, UniProt P10645 19-457, looked up)
Chromogranin-A: LPVNSPMNKGDTEVMKCIVEVISDTLSKPSPMPVSQECFETLRGDERILSILRHQNLLKELQDLALQGAKERAHQQKKHSGFEDELSEVLENQSSQAELKEAVEEPSSKDVMEKREDSKEAEKSGEATDGARPQALPEPMQESKAEGNNQAPGEEEEEEEEATNTHPPASLPSQKYPGPQAEGDSEGLSQGLVDREKGLSAEPGWQAKREEEEEEEEEAEAGEEAVPEEEGPTVVLNPHPSLGYKEIRKGESRSEALAVDGAGKPGAEEAQDPEGKGEQEHSQQKEEEEEMAVVPQGLFRGGKSGELEQEEERLSKEWEDSKRWSKMDQLAKELTAEKRLEGQEEEEDNRDSSMKLSFRARAYGFRGPGPQLRRGWRPSSREDSLEAGLPLQVRGYPEEKKEEEGSANRRPEDQELESLSAIEAELEKVAHQLQALRRG
For B1, the “inhibition of parathyroid hormone secretion” value is listed as “inhibit parathyroid hormone secretion”.
